This is an account of results in publication PMC4626869, “Subcellular trafficking of guanylyl cyclase/natriuretic peptide receptor-A with concurrent generation of intracellular cGMP” (Bioscience Reports, 2015).

Where no end group is shown, it is not given here.

The target in this assay is T1, enhanced GFP-tagged guanylyl cyclase/natriuretic peptide receptor-A (eGFP–NPRA fusion protein) (mouse, UniProt P18293 29-1057).
T1 sequence (looked up): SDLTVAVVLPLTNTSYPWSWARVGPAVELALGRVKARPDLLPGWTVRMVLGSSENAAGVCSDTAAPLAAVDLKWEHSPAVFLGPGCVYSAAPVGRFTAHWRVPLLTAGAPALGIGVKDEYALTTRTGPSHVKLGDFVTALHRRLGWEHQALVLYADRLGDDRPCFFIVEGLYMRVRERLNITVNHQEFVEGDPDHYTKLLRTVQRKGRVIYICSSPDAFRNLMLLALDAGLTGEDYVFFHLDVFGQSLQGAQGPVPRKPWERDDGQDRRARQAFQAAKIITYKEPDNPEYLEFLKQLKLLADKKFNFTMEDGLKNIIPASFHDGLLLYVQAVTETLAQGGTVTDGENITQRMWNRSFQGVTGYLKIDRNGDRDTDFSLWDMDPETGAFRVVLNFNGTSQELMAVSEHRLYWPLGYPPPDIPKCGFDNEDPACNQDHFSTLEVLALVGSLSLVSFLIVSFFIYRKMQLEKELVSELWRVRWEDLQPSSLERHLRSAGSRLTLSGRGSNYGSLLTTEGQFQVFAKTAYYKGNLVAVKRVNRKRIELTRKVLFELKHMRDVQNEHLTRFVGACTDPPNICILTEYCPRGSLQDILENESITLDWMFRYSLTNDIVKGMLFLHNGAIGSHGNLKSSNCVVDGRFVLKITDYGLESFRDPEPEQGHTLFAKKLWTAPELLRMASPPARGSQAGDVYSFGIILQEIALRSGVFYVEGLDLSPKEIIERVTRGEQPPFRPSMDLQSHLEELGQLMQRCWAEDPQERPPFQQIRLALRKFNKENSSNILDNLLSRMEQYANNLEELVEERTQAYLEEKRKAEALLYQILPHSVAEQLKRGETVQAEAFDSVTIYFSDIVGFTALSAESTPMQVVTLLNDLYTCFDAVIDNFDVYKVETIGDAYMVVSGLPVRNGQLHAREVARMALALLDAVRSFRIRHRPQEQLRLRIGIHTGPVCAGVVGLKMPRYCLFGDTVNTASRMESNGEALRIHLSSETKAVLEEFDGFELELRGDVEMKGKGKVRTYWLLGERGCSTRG
Nature of the assay: cell-based or functional assay.

For the molecule SLRRSSCFGGRIDRIGAQSGLGCNSFRY (ligand, rat, UniProt P01161 123-150, looked up, ends and bridges not checked; also: 125I label (residue not given here)) [Atrial natriuretic peptide (ANP), 125I-labelled], the “cGMP immunofluorescence intensity in intact cells treated with 100 nM ANP (unlabelled) for 1, 5, 10, 15 and 30 min, fold over untreated cells” value is 27 fold.
